What was measured:
[1] = biological target: HA33 (full-length, residues M1–P293), expressed alone (Clostridium botulinum strain 62A (BoNT/A1-producing)) (UniProt P0DPR0); experiment: AUC
[2] = biological target: HA70 of BoNT/A (full-length, residues M1–N626) (Clostridium botulinum strain 62A (BoNT/A1-producing)); experiment: AUC
[3] = biological target: HA complex (HA70–HA17–HA33), recombinant, reconstituted in vitro (Clostridium botulinum strain 62A (BoNT/A1-producing)) (UniProt Q45871); experiment: […], pH 7.6 with 100 mM NaCl; […]
[4] = biological target: mini-HA complex (HA70^D3–HA17–HA33) (Clostridium botulinum strain 62A (BoNT/A1-producing)) (UniProt Q45871); experiment: […], pH 7.6 with 100 mM NaCl; […]

HA33 (full-length, residues M1–P293), expressed alone (from UniProt P0DPR0 1-286) (natural protein)
stoichiometry N [1]: 2

HA70 of BoNT/A (full-length, residues M1–N626) (natural protein)
stoichiometry N (HA70 chains in the oligomer) [2]: 3

HA complex (HA70–HA17–HA33), recombinant, reconstituted in vitro (from UniProt Q45871 1-293)
Kd [3]: 10.9 µM

mini-HA complex (HA70^D3–HA17–HA33) (from UniProt Q45871 1-293)
Kd [4]: 23.1 µM

From publication PMC3795040
